Results on one molecule are retold here after patent US20200101152A1 (INSERM INSTITUT NATIONAL DE LA SANTE ET DE LA RECHERCHE …, published 2020).

For experiment [1], the target named is Rhesus macaque (NHP) CD40 ectodomain fused to cohesin (Rhesus macaque, UniProt F6SNI1 21-193). The experiment is described as follows: multiplexed bead-based equilibrium competition; NHP CD40 ectodomain beads; competitor mouse 12E12 mAb 10 ng/ml, PE anti-mouse IgG, Bio-Plex 200.
Experiment [2] addresses T1, human CD40 ectodomain fused to cohesin (human, UniProt P25942 22-193).
T1 construct: also called human CD40 coated beads; not shown: cohesin carrier (GenBank CP000568.1 nt 3622666-3623172) and the Nhe I site linker
The experiment is described as follows: multiplexed bead-based equilibrium competition; human CD40 ectodomain beads; competitor mouse 12E12 mAb 10 ng/ml, PE anti-mouse IgG, Bio-Plex 200.

A word on the IC50: it is the concentration that gives 50% inhibition. Read a high IC50 as weaker potency in that assay.

Rhesus macaque (NHP) CD40 ectodomain fused to cohesin, sequence (F6SNI1 entry or part of it): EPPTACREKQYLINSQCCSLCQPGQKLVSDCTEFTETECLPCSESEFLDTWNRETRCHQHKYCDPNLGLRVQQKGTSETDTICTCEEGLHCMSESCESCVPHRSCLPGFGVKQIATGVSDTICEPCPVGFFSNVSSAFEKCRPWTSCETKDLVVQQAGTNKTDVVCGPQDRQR
T1 sequence (P25942 22-193 limits assumed, form in doubt): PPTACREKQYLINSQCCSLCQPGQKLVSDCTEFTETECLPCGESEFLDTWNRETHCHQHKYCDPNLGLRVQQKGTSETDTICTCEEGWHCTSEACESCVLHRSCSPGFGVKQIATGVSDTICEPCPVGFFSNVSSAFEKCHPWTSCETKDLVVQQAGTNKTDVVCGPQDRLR

B1: humanized αCD40 (humanized anti-human CD40 12E12 recombinant human IgG4 mAb) (antibody, V domains shown)
VH: EVQLVESGGGLVQPGGSLKLSCATSGFTFSDYYMYWVRQAPGKGLEWVAYINSGGGSTYYPDTVKGRFTISRDNAKNTLYLQMNSLRAEDTAVYYCARRGLPFHAMDYWGQGTLVTVSS
VL: DIQMTQSPSSLSASVGDRVTITCSASQGISNYLNWYQQKPGKAVKLLIYYTSILHSGVPSRFSGSGSGTDYTLTISSLQPEDFATYYCQQFNKLPPTFGGGTKLEIKG
notes: also called hAnti-CD40VH3-LV-hIgG4HC
With B1, the IC50 was 0.83 pM in experiment [1] and 1 pM in experiment [2].
